The values below come from the MegaScale stability set (Tsuboyama et al. 2023).

B1: 2M8U (parent)
chain: TKAQVIEAFKVFDRDGNGYVTVDYLRKVLNELGDMMPADEIEEMIYEADPQNSGYVQYETFVGMLFL

The variants in this data set derive from B1. Briefly: folding stability dG (cDNA display proteolysis); higher = more stable. The settings on record: PBS, room temperature.
Consider A48R, for which the “folding stability dG” value was determined as 2.9 kcal/mol.

In the case of A48H, the “folding stability dG” value was found to be 3.68 kcal/mol.

On to A48E, for which the “folding stability dG” value was found to be 2.78 kcal/mol.

Take A48P: the “folding stability dG” value stood at 2.25 kcal/mol.

With A48F, the “folding stability dG” value came out at 3.44 kcal/mol.

Consider A48W, for which the “folding stability dG” value turned out to be 3.34 kcal/mol.

In the case of A48V, the “folding stability dG” value was determined as 3.28 kcal/mol.

Take Y19C: the “folding stability dG” value was determined as 2.74 kcal/mol.

With Y19E, the “folding stability dG” value is 2.63 kcal/mol.

On to Y19V, for which the “folding stability dG” value is 3.05 kcal/mol.

In the case of Y19Q, the “folding stability dG” value turned out to be 2.91 kcal/mol.

Regarding Y19D, the “folding stability dG” value came out at 2.21 kcal/mol.

With Y19M, the “folding stability dG” value is 3.3 kcal/mol.

With Y19A, the “folding stability dG” value was 2.7 kcal/mol.

For P50F, the “folding stability dG” value stood at 3.05 kcal/mol.

P50S: the “folding stability dG” value was 3.29 kcal/mol.

In the case of P50D, the “folding stability dG” value stood at 2.9 kcal/mol.

As to P50T, the “folding stability dG” value worked out at 3.12 kcal/mol.

Regarding P50V, the “folding stability dG” value came out at 2.99 kcal/mol.

Turning to P50H, the “folding stability dG” value was 3.07 kcal/mol.

With P50Y, the “folding stability dG” value was 3.06 kcal/mol.

For the variant Y24E, the “folding stability dG” value was found to be 4.23 kcal/mol.

As to Y24K, the “folding stability dG” value stood at 3.82 kcal/mol.

For the variant Y24V, the “folding stability dG” value was 4.38 kcal/mol.

As to Y24Q, the “folding stability dG” value worked out at 4.33 kcal/mol.

For Y24P, the “folding stability dG” value was 1.24 kcal/mol.

Turning to Y24R, the “folding stability dG” value stood at 3.94 kcal/mol.

With Y24L, the “folding stability dG” value worked out at 4 kcal/mol.

On to G33H, for which the “folding stability dG” value turned out to be 3.25 kcal/mol.

G33K: the “folding stability dG” value amounted to 3.46 kcal/mol.

For G33E, the “folding stability dG” value was found to be 3.48 kcal/mol.

As to Y55G, the “folding stability dG” value amounted to 2.16 kcal/mol.

In the case of Y55V, the “folding stability dG” value was 3.44 kcal/mol.

Regarding Y55E, the “folding stability dG” value worked out at 3.05 kcal/mol.

For the variant V20Q, the “folding stability dG” value was 2.15 kcal/mol.

For V20N, the “folding stability dG” value worked out at 2.76 kcal/mol.

Regarding V20W, the “folding stability dG” value came to 2.96 kcal/mol.

Turning to V20H, the “folding stability dG” value was 1.98 kcal/mol.

For the variant V20D, the “folding stability dG” value came out at 2.73 kcal/mol.

For the variant Y58V, the “folding stability dG” value was 2.67 kcal/mol.

Regarding Y58W, the “folding stability dG” value was found to be 3.45 kcal/mol.

As to Y58P, the “folding stability dG” value came out at 1.71 kcal/mol.

With Y58K, the “folding stability dG” value was determined as 1.56 kcal/mol.

With N30P, the “folding stability dG” value stood at 2.6 kcal/mol.

As to N30F, the “folding stability dG” value was determined as 3.65 kcal/mol.

Take N30T: the “folding stability dG” value was 3.44 kcal/mol.

In the case of N30G, the “folding stability dG” value was 3.6 kcal/mol.

Regarding N30S, the “folding stability dG” value amounted to 3.63 kcal/mol.

On to V22A, for which the “folding stability dG” value is 2.95 kcal/mol.

For the variant V22R, the “folding stability dG” value was found to be 3.59 kcal/mol.

Take V22S: the “folding stability dG” value worked out at 3.02 kcal/mol.

On to V22C, for which the “folding stability dG” value turned out to be 2.88 kcal/mol.

Take V22K: the “folding stability dG” value was determined as 3.3 kcal/mol.

Take V22F: the “folding stability dG” value came out at 2.52 kcal/mol.

Take V22N: the “folding stability dG” value was determined as 2.76 kcal/mol.

Turning to V22L, the “folding stability dG” value worked out at 3.49 kcal/mol.

Regarding V22D, the “folding stability dG” value turned out to be 1.76 kcal/mol.

Regarding F61P, the “folding stability dG” value stood at 0.783 kcal/mol.

F61L: the “folding stability dG” value turned out to be 2.65 kcal/mol.

For the variant V11E, the “folding stability dG” value was 3.52 kcal/mol.

For the variant V11K, the “folding stability dG” value worked out at 3.72 kcal/mol.

On to V11A, for which the “folding stability dG” value amounted to 3.77 kcal/mol.

V11I: the “folding stability dG” value is 3.38 kcal/mol.

With V11M, the “folding stability dG” value amounted to 3.24 kcal/mol.

For the variant V11L, the “folding stability dG” value came to 3.44 kcal/mol.

Take V11C: the “folding stability dG” value turned out to be 3.39 kcal/mol.

On to Q51T, for which the “folding stability dG” value was 3.56 kcal/mol.

On to Q51V, for which the “folding stability dG” value amounted to 3.34 kcal/mol.

In the case of Q51C, the “folding stability dG” value was found to be 3.71 kcal/mol.

Regarding D34M, the “folding stability dG” value amounted to 4.24 kcal/mol.

For the variant D34S, the “folding stability dG” value was 3.32 kcal/mol.

Regarding D34E, the “folding stability dG” value was found to be 3.77 kcal/mol.

Consider D34N, for which the “folding stability dG” value was found to be 3.58 kcal/mol.

Take D39Q: the “folding stability dG” value was determined as 3.59 kcal/mol.

As for D39G, the “folding stability dG” value was 3.77 kcal/mol.

Regarding D39L, the “folding stability dG” value was 3.89 kcal/mol.

For the variant D39N, the “folding stability dG” value came to 3.68 kcal/mol.

As to D39Y, the “folding stability dG” value is 3.86 kcal/mol.

Turning to L29M, the “folding stability dG” value was 3.58 kcal/mol.

As to L29C, the “folding stability dG” value came out at 3.16 kcal/mol.

Regarding L29D, the “folding stability dG” value came to 0.756 kcal/mol.

L29T: the “folding stability dG” value worked out at 2.46 kcal/mol.

With K10G, the “folding stability dG” value was determined as 2.97 kcal/mol.

As to K10S, the “folding stability dG” value was found to be 2.86 kcal/mol.

In the case of K10T, the “folding stability dG” value is 2.77 kcal/mol.

With K10N, the “folding stability dG” value turned out to be 2.74 kcal/mol.

In the case of K10D, the “folding stability dG” value turned out to be 2.26 kcal/mol.

M44N: the “folding stability dG” value stood at 2.88 kcal/mol.

M44P: the “folding stability dG” value was 1.8 kcal/mol.

Regarding M44G, the “folding stability dG” value is 2.53 kcal/mol.

Consider M44T, for which the “folding stability dG” value came out at 2.97 kcal/mol.

M44A: the “folding stability dG” value was determined as 3.48 kcal/mol.

On to M44L, for which the “folding stability dG” value turned out to be 3.65 kcal/mol.

On to V5F, for which the “folding stability dG” value turned out to be 3.59 kcal/mol.

With V5A, the “folding stability dG” value came out at 2.77 kcal/mol.

Consider V5K, for which the “folding stability dG” value is 1.82 kcal/mol.

With V5M, the “folding stability dG” value stood at 3.85 kcal/mol.

For the variant A38T, the “folding stability dG” value came out at 3.6 kcal/mol.

As for A38F, the “folding stability dG” value amounted to 3.53 kcal/mol.

Take A38E: the “folding stability dG” value was found to be 3.43 kcal/mol.

In the case of A38Q, the “folding stability dG” value stood at 3.69 kcal/mol.

On to Q57H, for which the “folding stability dG” value is 3.85 kcal/mol.

Turning to Q57A, the “folding stability dG” value stood at 3.31 kcal/mol.

With Q57E, the “folding stability dG” value was found to be 3.56 kcal/mol.

Take Q57R: the “folding stability dG” value amounted to 3.13 kcal/mol.

Turning to Q57M, the “folding stability dG” value was 3.27 kcal/mol.

Take Q57Y: the “folding stability dG” value worked out at 3.51 kcal/mol.

Regarding Q57P, the “folding stability dG” value was found to be 2.64 kcal/mol.

D49V: the “folding stability dG” value came to 2.58 kcal/mol.

In the case of D49P, the “folding stability dG” value worked out at 2.15 kcal/mol.

D49S: the “folding stability dG” value amounted to 2.93 kcal/mol.

For D49Q, the “folding stability dG” value is 2.53 kcal/mol.

With D49F, the “folding stability dG” value was determined as 2.43 kcal/mol.

In the case of D49W, the “folding stability dG” value amounted to 2.66 kcal/mol.

For the variant N17M, the “folding stability dG” value came out at 3.15 kcal/mol.

Consider N17Q, for which the “folding stability dG” value is 3.12 kcal/mol.

On to N17G, for which the “folding stability dG” value worked out at 2.96 kcal/mol.

For N17H, the “folding stability dG” value is 3.03 kcal/mol.

Consider I45Q, for which the “folding stability dG” value was 1.91 kcal/mol.

Consider I45F, for which the “folding stability dG” value amounted to 2.61 kcal/mol.

Regarding I45S, the “folding stability dG” value amounted to 2.16 kcal/mol.

I45K: the “folding stability dG” value was found to be 2.41 kcal/mol.

Take I45V: the “folding stability dG” value amounted to 3 kcal/mol.

As for I45G, the “folding stability dG” value was determined as 2.2 kcal/mol.

For the variant I45Y, the “folding stability dG” value worked out at 2.5 kcal/mol.

Take I6P: the “folding stability dG” value worked out at 1.65 kcal/mol.

I6W: the “folding stability dG” value was found to be 2.18 kcal/mol.

On to I6D, for which the “folding stability dG” value came to 2.38 kcal/mol.

As to I6A, the “folding stability dG” value was determined as 2.25 kcal/mol.

As for I6K, the “folding stability dG” value was 2.38 kcal/mol.

In the case of G63A, the “folding stability dG” value was 3.66 kcal/mol.

For G63S, the “folding stability dG” value is 3.63 kcal/mol.

In the case of G63E, the “folding stability dG” value came out at 4.11 kcal/mol.

As to G63I, the “folding stability dG” value came to 3.41 kcal/mol.

For the variant D13H, the “folding stability dG” value was 1.95 kcal/mol.

For D13S, the “folding stability dG” value stood at 1.57 kcal/mol.

For D13E, the “folding stability dG” value was found to be 2.11 kcal/mol.

On to D13C, for which the “folding stability dG” value is 3.16 kcal/mol.

As to R14P, the “folding stability dG” value was 3.5 kcal/mol.

For the variant R14N, the “folding stability dG” value stood at 3.34 kcal/mol.

As for R14C, the “folding stability dG” value stood at 3.42 kcal/mol.

On to R14I, for which the “folding stability dG” value was determined as 3.77 kcal/mol.

Take R14L: the “folding stability dG” value worked out at 3.75 kcal/mol.

R14A: the “folding stability dG” value was found to be 3.65 kcal/mol.

Turning to R14K, the “folding stability dG” value worked out at 3.55 kcal/mol.

Consider R14T, for which the “folding stability dG” value is 3.81 kcal/mol.

On to R14Q, for which the “folding stability dG” value was found to be 3.49 kcal/mol.

Consider M36V, for which the “folding stability dG” value came out at 3.81 kcal/mol.

With M36I, the “folding stability dG” value was 3.75 kcal/mol.

M36D: the “folding stability dG” value is 2.72 kcal/mol.

Regarding E42H, the “folding stability dG” value came out at 3.01 kcal/mol.

With E42S, the “folding stability dG” value amounted to 3.29 kcal/mol.

As for E42M, the “folding stability dG” value worked out at 3.3 kcal/mol.

For E42Q, the “folding stability dG” value is 3.37 kcal/mol.

In the case of F9D, the “folding stability dG” value came to 1.85 kcal/mol.

Consider F9M, for which the “folding stability dG” value turned out to be 3.82 kcal/mol.

Regarding F9I, the “folding stability dG” value was found to be 4.09 kcal/mol.

For the variant F9H, the “folding stability dG” value stood at 2.14 kcal/mol.

As for F9R, the “folding stability dG” value was found to be 1.98 kcal/mol.

Consider F9Q, for which the “folding stability dG” value came out at 2.08 kcal/mol.

For the variant F9S, the “folding stability dG” value is 2.13 kcal/mol.

With F9W, the “folding stability dG” value was determined as 1.95 kcal/mol.

Regarding V28I, the “folding stability dG” value was found to be 3.32 kcal/mol.

Regarding V28G, the “folding stability dG” value was determined as 2.32 kcal/mol.

Take V28M: the “folding stability dG” value was determined as 2.65 kcal/mol.

Take V28N: the “folding stability dG” value turned out to be 1.84 kcal/mol.

Turning to K2R, the “folding stability dG” value is 3.02 kcal/mol.
